Columns and labels:
Assay type in all cases: cell-based, human
[1] = test system: fibrocytes; test: IL-10, icIL-1RA, sIL-1RA expression (PCR, ELISA)
Protocol: FIGS. 11A-11F are graphs showing teprotumumab attenuates bTSH induced IL-10 while enhancing icIL-1RA and sIL-1RA expression in fibrocytes and GD-OF. Fibrocyte cultures were treated with teprotumumab (50 μg/ml), rhSlit2 (50 ng/ml) or human Isotype IgG for 7-9 d, with bTSH (5 mIU/mL) for final 6 h. RNA was extracted and reverse transcribed. Isolated cDNA was subjected to quantitative real-time PCR for IL-10 (FIGS. 11A and 11B), icIL-1RA (FIGS. 11C and 11D). Media and cellular proteins were collected and subjected to specific ELISAs for icIL-1RA and sIL-1RA (FIGS. 11E, 11F, 11G, and 11H). PCR values were normalized to their respective GAPDH levels. icIL-1RA and sIL-1RA protein levels were normalized to cellular protein levels. Data are expressed as the mean±SD of three independent determinations. Experiments were repeated three times. **, p<0.01; ***. P<0.001.
IL-12, IL-23, IL-10, HA and BAFF ELISAs. Confluent cultures were treated with nothing or teprotumumab (50 μg/mL) for 5 d, without or with bTSH (5 mU/mL) for the intervals indicated or 72 h. Media and rinsed cell layers were homogenized in 0.1M NaCl and assayed for HA content using an ELISA kit (K-1200) from Echelon Biosciences Inc. (Salt Lake City, UT) according to manufacturer's instructions. A BAFF specific ELISA, purchased from R & D systems, was used in accordance with the manufacturer's instructions.
(§1) Real-time PCR Confluent fibrocyte and GD-OF cultures were incubated with bTSH (5 mIU/mL), teprotumumab (50 μg/mL) or linsitinib (1 μM) for the time intervals indicated, washed with PBS and RNA was extracted with the Aurum Total RNA Mini Kit (cat. #732-6820, Bio-Rad, Hercules, CA). Cellular RNA (2 μg) was reverse transcribed using QuantiTect Reverse Transcription kit (cat. #205314, Qiagen (Germantown, MD) and real-time PCR was performed using an Applied Biosystems instrument with QuantiTect SYBR Green PCR kit (cat. no. 204143; Qiagen, Frederick, MD). Primer sequences were as follows.

[2] = test system: CD34+ fibrocytes; test: MHC II, CD80, CD86, PD-L1 expression in cultured fibrocytes (RT-qPCR, flow cytometry); details: rhSlit2 50 ng/ml, 5 to 7 d
Source text: Fibrocyte and T cell isolation and cultivation. Peripheral blood mononuclear cells (PBMCs) were obtained from the venous circulation of clinic patients with GD, TAO or from healthy donors after obtaining informed consent. PBMCs were also obtained from Red Cross donor plasmapheresis filters. They were isolated by Ficoll-Histopaque (Sigma-Aldrich, St. Louis, MO) density gradient centrifugation. Fibrocytes were cultivated as described (Bucala, R, et al., (1994) Mol Med 1, 71-81, incorporated herein by reference in its entirety) except that culture substrata remained uncoated with fibronectin, as previously described (Douglas, R. S., et al. (2010) The Journal of clinical endocrinology and metabolism 95, 430-438). Isolated PBMCs (1×10^6-1×107) were inoculated in six-well plates covered with DMEM containing 10% FBS and incubated in 10-14 days. Adherent monolayers (<5% of the starting population) were washed with PBS and detached using accutase (Millipore) treatment, or mechanical scraping following accutase treatment. Culture purity was routinely confirmed by FACS analysis to be >90% fibrocytes by confirming the CD31^−CD45^+CD34^+CXCR4^+Col I^+TSFR^high phenotype.
Invariably, a small population of tightly adherent T cells were found in the fibrocyte cultures, consistent with the previous findings. Culture viability was routinely verified to be >90%. CD4^+ T cells were enriched using the CD4 isolation cocktail (Cat #0.130-096-533, Miltenyi Biotec, San Diego, CA) followed by negative selection using a magnetic column (Cat #0.130-042-401) according to manufacturer's protocol. Fibrocytes and isolated T cells were cultured and remained untreated or were incubated with human IgG isotype control (5 μg/ml) or teprotumumab (50 μg/mL) for 7 to 9 days. Single cell suspensions were stained with anti-human CD4, CD3, CD34, MHC-2, CD80, CD86, and PD-L1 (BD Biosciences) for 30 min, rinsed and fixed with CytoPerm/CytoFix (BD). They were then stained with anti-human INFγ and IL-17A for 20 min, rinsed, and subjected to the flow cytometry analysis. Gated CD34^+CXCR4^+ fibrocytes and CD4^+CD3^+ T cells were analyzed using quadrant settings based on negative isotype staining.
In vitro studies of CD34^+ fibrocytes and T cells PBMC and GD-OF monolayers were treated in vitro with human IgG isotype control (5 μg/ml), teprotumumab (50 μg/mL), H7 (5 μg/mL), linsitinib (1 μM), bTSH (5 mIU/mL), M22 (1 μg/mL), or IGF-1 (10 nM) for the intervals indicted in the figure legends in a 37° C., 5% CO2, humidified incubator until confluent. Brefeldin A (0.66 μl/ml), (Golgi Stop™, BD Biosciences), phorbol 12-myristate 13-acetate (PMA) (50 ng/ml) and ionomycin (1 μg/mL) were added for 5 h. Cells were rinsed with flow cytometry buffer (1×PBS, 0.5% BSA, 0.1% sodium azide) and stained with the relevant monoclonal antibodies.
as §1

[3] = test system: fibrocytes and GD-OF; test: BAFF expression and induction by bTSH; details: teprotumumab 50 μg/ml or rhSlit2 50 ng/ml
Protocol: FIGS. 12A-12F are graphs showing the effect of bTSH, teprotumumab, and Slit2 on B-cell activating factor (BAFF) expression in fibrocytes and GD-OF. In FIGS. 12A and 12B, cultures were treated for the graded intervals indicated along the abscissas with bTSH (5 mIU/mL). Cellular RNA was harvested and subjected to reverse transcription by RT-PCR (FIG. 12A). Values were normalized to their respective GAPDH levels Medium was assayed for BAFF levels with an ELISA (FIG. 12B). Values were normalized to respective monolayer protein content. Data are expressed as mean f SD of triplicate determinations; *, p<0.05; **, p<0.01; ***, p<0.001. In FIGS. 12C-12F, bTSH, teprotumumab (50 μg/ml) or recombinant human Slit2 (rhSlit2) (50 ng/ml) were added to culture media for the times indicated and analyzed for BAFF mRNA levels as in FIG. 12A. In FIGS. 12F, parental GD-OF strains were sorted into pure CD34^+ and CD34^− subsets. Subsets were then cultured for 48 h, the final 6 h in the absence or presence of bTSH. Data were expressed as mean f SD of triplicate independent determinations from a single experiment representative of three conducted. *, p<0.05; **, p<0.01
IL-12, IL-23, IL-10, HA and BAFF ELISAs. Confluent cultures were treated with nothing or teprotumumab (50 μg/mL) for 5 d, without or with bTSH (5 mU/mL) for the intervals indicated or 72 h. […]

[4] = teprotumumab 50 μg/ml or rhSlit2 50 ng/ml, 7-9 d

B1: rhSlit2: recombinant human Slit2, a neural axon repellent generated by CD34− OF (protein, UniProt O94813 31-1529, looked up)
Slit homolog 2 protein: QCSCSGSTVDCHGLALRSVPRNIPRNTERLDLNGNNITRITKTDFAGLRHLRVLQLMENKISTIERGAFQDLKELERLRLNRNHLQLFPELLFLGTAKLYRLDLSENQIQAIPRKAFRGAVDIKNLQLDYNQISCIEDGAFRALRDLEVLTLNNNNITRLSVASFNHMPKLRTFRLHSNNLYCDCHLAWLSDWLRQRPRVGLYTQCMGPSHLRGHNVAEVQKREFVCSGHQSFMAPSCSVLHCPAACTCSNNIVDCRGKGLTEIPTNLPETITEIRLEQNTIKVIPPGAFSPYKKLRRIDLSNNQISELAPDAFQGLRSLNSLVLYGNKITELPKSLFEGLFSLQLLLLNANKINCLRVDAFQDLHNLNLLSLYDNKLQTIAKGTFSPLRAIQTMHLAQNPFICDCHLKWLADYLHTNPIETSGARCTSPRRLANKRIGQIKSKKFRCSAKEQYFIPGTEDYRSKLSGDCFADLACPEKCRCEGTTVDCSNQKLNKIPEHIPQYTAELRLNNNEFTVLEATGIFKKLPQLRKINFSNNKITDIEEGAFEGASGVNEILLTSNRLENVQHKMFKGLESLKTLMLRSNRITCVGNDSFIGLSSVRLLSLYDNQITTVAPGAFDTLHSLSTLNLLANPFNCNCYLAWLGEWLRKKRIVTGNPRCQKPYFLKEIPIQDVAIQDFTCDDGNDDNSCSPLSRCPTECTCLDTVVRCSNKGLKVLPKGIPRDVTELYLDGNQFTLVPKELSNYKHLTLIDLSNNRISTLSNQSFSNMTQLLTLILSYNRLRCIPPRTFDGLKSLRLLSLHGNDISVVPEGAFNDLSALSHLAIGANPLYCDCNMQWLSDWVKSEYKEPGIARCAGPGEMADKLLLTTPSKKFTCQGPVDVNILAKCNPCLSNPCKNDGTCNSDPVDFYRCTCPYGFKGQDCDVPIHACISNPCKHGGTCHLKEGEEDGFWCICADGFEGENCEVNVDDCEDNDCENNSTCVDGINNYTCLCPPEYTGELCEEKLDFCAQDLNPCQHDSKCILTPKGFKCDCTPGYVGEHCDIDFDDCQDNKCKNGAHCTDAVNGYTCICPEGYSGLFCEFSPPMVLPRTSPCDNFDCQNGAQCIVRINEPICQCLPGYQGEKCEKLVSVNFINKESYLQIPSAKVRPQTNITLQIATDEDSGILLYKGDKDHIAVELYRGRVRASYDTGSHPASAIYSVETINDGNFHIVELLALDQSLSLSVDGGNPKIITNLSKQSTLNFDSPLYVGGMPGKSNVASLRQAPGQNGTSFHGCIRNLYINSELQDFQKVPMQTGILPGCEPCHKKVCAHGTCQPSSQAGFTCECQEGWMGPLCDQRTNDPCLGNKCVHGTCLPINAFSYSCKCLEGHGGVLCDEEEDLFNPCQAIKCKHGKCRLSGLGQPYCECSSGYTGDSCDREISCRGERIRDYYQKQQGYAACQTTKKVSRLECRGGCAGGQCCGPLRSKRRKYSFECTDGSSFVDEVEKVVKCGCTRCVS
- sIL-1RA expression (protein) ([1]; ELISA, fibrocytes): attenuated
- IL-10 mRNA, basal and bTSH-provoked expression [1, 4]: downregulated
- basal and bTSH-dependent icIL-1RA and sIL-1RA mRNA levels [1, 4]: upregulated
- MHC II and B7 expression [2]: repressing
- bTSH induction of BAFF [3]: similar

Source: patent US20250034264A1, “REGULATING T CELL IMMUNE RESPONSE THROUGH IGF-I RECEPTOR (IGF-1R)” (The Regents of the University of Michigan, priority 2021, published 2025)
